Measurements: the supplement of paper PMC9732359
± gives the uncertainty stated by the source.

experiment: protein stability index of a GFP-peptide fusion (yeast GPS) (PSI 1-4); higher = more stable; sorted into four equal gates, so the index is relative within each strain; conditions: ubr1∆
Procedure, shortened: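 Peptides tiling yeast proteins in 17-residue segments were fused downstream of GFP, with Cherry expressed from the same plasmid. As a pooled library in yeast, mid-log cultures grown in leucine-free medium were sorted into four equal gates by GFP/Cherry fluorescence ratio. Gate plasmids were PCR-amplified and Illumina-sequenced, and barcodes linked reads to strains. Each peptide received a protein stability index equal to the sum of each gate's read frequency times its gate number.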

Row | Sequence | protein stability index
1 | AGTQSSKFSKQQAKGAF [RPL24A] | 3.17 ± 0.049
2 | AGTTDNSFIKANLPWLG [RPN2] | 1.36 ± 0.065
3 | AGVNNDNTKESKDVKMN [RTT102] | 2.35 ± 0.24
4 | AGYTTHLMKRIQKGPVR [RPS17A] | 2.57 ± 0.096
5 | AHFLSLSFTPTTVIGIR [RPN2] | 1.27 ± 0.031
6 | AHLAEIQLNGGSISEKV [RPL3] | 2.86 ± 0.12
7 | AHVFVGTCNGDITTSIM [RPN1] | 2.62 ± 0.053
8 | AIACYSGYNQEDSMIMN [RPB2] | 2.39 ± 0.12
9 | AIANTLLYLRLKNIYVS [PRP8] | 1.18 ± 0.045
10 | AICRYANVIKALAFCEI [RRP4] | 2.22 ± 0.072
11 | AIDYEPEYEKAMQYVCG [SMC1] | 2.44 ± 0.11
12 | AIIGLKSGTSHDAIFSI [SNF12] | 2.96 ± 0.17
13 | AINIMNRSNDALIKFME [FAS2] | 3.38 ± 0.15
14 | AIPLQQVLSQSADPSLL [SWI1] | 3.06 ± 0.17
15 | AIPSRMTVAHLIECLLS [RPB2] | 1.67 ± 0.09
16 | AIRRDARYNWICDPVHK [RPL15A] | 3.18 ± 0.076
17 | AIRRDARYNWICNPVHK [RPL15B] | 3.21 ± 0.081
18 | AISGKKTTYYYYNEEGI [RPC82] | 3.06 ± 0.076
19 | AISTDKINPFGFEQVKI [RRI2] | 2.86 ± 0.061
20 | AITISNSIDINYKGLPK [SMC1] | 2.98 ± 0.039
21 | AKGCEVVVSGKLRAARA [RPS3] | 3.25 ± 0.28
22 | AKGLVAYHQKYVDEQSK [RPS16A] | 1.11 ± 0.034
23 | AKHAVSEGTRAVTKYSS [HTB1] | 3.12 ± 0.09
24 | AKIYPGRGTLFVRGDSK [RPL24A] | 2.04 ± 0.085
25 | AKNEDDPAHSLNYTVIN [AAR2] | 2.43 ± 0.18

Row | Sequence | protein stability index
26 | AKQALDLYHFALNYENE [SNF2] | 1.83 ± 0.1
27 | AKSISTSAKEPSENDVF [RPO31] | 3.2 ± 0.09
28 | AKSMAFLKEVLSDLSSP [YML103C/NUP188] | 2.95 ± 0.065
29 | AKSTVETFISSMTATAD [RIP1] | 1.48 ± 0.05
30 | AKVNRPAKIVNFEKPKN [RPN5] | 3.12 ± 0.054
31 | AKWAPTLRTISFKGSPN [SNF2] | 2.51 ± 0.14
32 | ALALYVDAYRRLENKLS [SRP68] | 1.52 ± 0.1
33 | ALASIQTFNFDSFENYF [RPN12] | 2.82 ± 0.054
34 | ALDTVTNVLNFIKLQKI [FAS1] | 2.15 ± 0.055
35 | ALEEAKLSDNISICMIL [YDL116W/NUP84] | 3.21 ± 0.043
36 | ALEFVSLLLSSVKESTG [SRB4] | 1.24 ± 0.048
37 | ALEYIGAKVKTMRRQKL [RET1] | 2.19 ± 0.066
38 | ALIDAGISMFDYISGIS [SKI6] | 1.68 ± 0.037
39 | ALIDTEFANFELKDICS [YML103C/NUP188] | 2.16 ± 0.037
40 | ALIENWAADSVSSRVRG [FAS1] | 3.34 ± 0.075
41 | ALPNIENDIIKLSDSKT [BRR2] | 3.23 ± 0.054
42 | ALQNLSQLPITPMTRIS [YGL172W/NUP49] | 1.92 ± 0.065
43 | ALRGMFKDRFKDEPVQN [FAS2] | 3.58 ± 0.11
44 | ALSLHREILCYSKDAKE [FAS2] | 1.82 ± 0.021
45 | ALSQSSLLKTKLKQQSS [RRI1] | 2.26 ± 0.035
46 | ALTKFEASQVTEKQRKK [RPL35A] | 3.17 ± 0.061
47 | ALTRGEALLVVLVSSVT [RPS12] | 3.29 ± 0.26
48 | AMFFGNYGSSLQWHAMI [AAR2] | 2.15 ± 0.071
49 | AMICEAKGLIENIFEGE [YJR042W/NUP85] | 2.81 ± 0.064
50 | AMLINLILRDFLNNGEV [RPN3] | 2.84 ± 0.076

Row | Sequence | protein stability index
51 | AMSLYHSPFPFNRTKGK [PRP8] | 1.98 ± 0.03
52 | ANATAAESDVAKQLAAL [RPL16A] | 3.23 ± 0.05
53 | ANGIINVKEITEKLKIS [SMC3] | 2.9 ± 0.06
54 | ANLEDIIFEIEKPLVVP [RRP6] | 2.03 ± 0.11
55 | ANLPANSSTSPAPSIPS [YLR335W/NUP2] | 2.856 ± 0.027
56 | ANLPWLGKAQNWAKFTA [RPN2] | 3.52 ± 0.082
57 | ANMATVPSTTNVNMTVN [MED6] | 2.93 ± 0.052
58 | ANNIVNIVSDAGANDTS [GRR1] | 3.13 ± 0.094
59 | ANRDDVKGRENELLLPS [RPC82] | 3.34 ± 0.084
60 | ANRSRFNNEAPPQTRKF [SMB1] | 3.26 ± 0.047
61 | APGASVPATAAPGTEAG [SWI1] | 3.18 ± 0.07
62 | APGTEAGIVPVSANTPK [SWI1] | 3.18 ± 0.054
63 | APIPKQLLQRIPNIPPN [GAL11] | 2.54 ± 0.049
64 | APKWYPSEDVAAPKKTR [RPL6B] | 1.98 ± 0.1
65 | APLAKVVFRDPYKYRLR [RPL2A] | 3.13 ± 0.062
66 | APPLENENSNCLLSIPK [YML103C/NUP188] | 1.71 ± 0.059
67 | APQVYIITKNENFLKEV [GAL11] | 3.5 ± 0.19
68 | APSVPEFIYLTKVLQFA [SNF2] | 2.91 ± 0.087
69 | AQAQAQAQAQVYAQQST [PGD1] | 3.01 ± 0.044
70 | AQFLRSVVHPGEMVGVL [RPO21] | 1.49 ± 0.054
71 | AQGDPNLEPLIAKLVAV [NUT1] | 1.07 ± 0.088
72 | AQGLLHLGKGTMTMDVF [RPN1] | 1.89 ± 0.058
73 | AQKNTQSYGGRPYGVGL [PRE5] | 3.26 ± 0.058
74 | AQKRVVSYMMPSLYRLL [SRB8] | 1.29 ± 0.053
75 | AQLDGRIGVLQARMMQQ [NSL1] | 2.61 ± 0.048

Row | Sequence | protein stability index
76 | AQPSVQSSFAGTWSAKE [FAS2] | 3.09 ± 0.087
77 | AQYEVLANYLTSALSEL [QCR2] | 1.68 ± 0.044
78 | ARERKTATYNDNMSEEQ [SNF2] | 3.22 ± 0.085
79 | ARIFEFPKTTVAALRFT [RPL18A] | 1.79 ± 0.098
80 | ARSGLRIGRIEDVTPVP [RPS14A] | 2.85 ± 0.072
81 | ARTATVSKKWAAAAVCE [RPL14A] | 2.71 ± 0.066
82 | ARVILYLKNVLFAFNGV [SIN4] | 1.38 ± 0.042
83 | ARYNWICNPVHKHREAR [RPL15B] | 3.04 ± 0.095
84 | ASDGGLYVPHSENRFPG [RPL5] | 2.92 ± 0.057
85 | ASINTSATVKTSDLLGS [ECM29] | 3.25 ± 0.21
86 | ASMLGLFVFTEGWPKFQ [QCR10] | 2.82 ± 0.2
87 | ASSLRFGNSLSNTVNAN [YDL088C/ASM4] | 2.89 ± 0.074
88 | ASSSPSSTDFSTCIVSL [ECM29] | 1.84 ± 0.059
89 | ASTINGASIIQVIFEIF [YML103C/NUP188] | 1.94 ± 0.046
90 | ASYSKYLIDHIKVDGAV [RPL22B] | 2.83 ± 0.063
91 | ASYVNIPVIALTDLDSP [RPS0A] | 1.88 ± 0.046
92 | ATANATANATANVNASA [DSN1] | 2.918 ± 0.025
93 | ATDEESVRLQRFYQLGV [CSN12] | 3.13 ± 0.099
94 | ATESIKNRRRIHGELKT [SMC1] | 2.61 ± 0.14
95 | ATLKEIKSIIEQRKQKL [SMC3] | 3.04 ± 0.052
96 | ATNRPDTLDPALLRPGR [RPT4] | 3.1 ± 0.14
97 | ATPPLKRFKDMEYLSGG [SMC1] | 3.01 ± 0.063
98 | ATRHVLMRQGVLGIKVK [RPS3] | 2.07 ± 0.056
99 | ATTGGGLFGNKPNNTAN [YGL172W/NUP49] | 3.54 ± 0.18
